Measurements from patent US20250002605A1 (WUHAN YZY BIOPHARMA, published 2025).

Experiments:
[1] = target: T1, human EpCAM on the cell surface (human, UniProt P16422 24-314); assay: flow cytometry (FACS) on HCT116 cells, PE anti-human IgG Fc detection
T1 construct: whole, on cells; also called EpCAM of cells; HCT116 cells
T1 sequence (looked up): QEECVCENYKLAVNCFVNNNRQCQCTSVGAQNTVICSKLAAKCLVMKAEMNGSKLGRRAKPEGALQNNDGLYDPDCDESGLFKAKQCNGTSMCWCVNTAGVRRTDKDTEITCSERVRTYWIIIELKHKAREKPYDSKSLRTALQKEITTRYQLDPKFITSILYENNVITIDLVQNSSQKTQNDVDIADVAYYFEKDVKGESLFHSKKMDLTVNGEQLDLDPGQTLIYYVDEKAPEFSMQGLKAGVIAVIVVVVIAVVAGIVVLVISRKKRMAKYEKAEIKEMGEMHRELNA

[2] = target: T1, human EpCAM on the cell surface; assay: cell-based or functional assay
[3] = target: T2, human EpCAM antigen (SB, Cat: 10694-H08H) (human, UniProt P16422 24-265); assay: SPR (Biacore T200), antigen amine-coupled on CM5, antibody as analyte, 1:1 fit; D0 sample
T2 construct: Bought antigen immobilised on a CM5 chip
T2 sequence (looked up): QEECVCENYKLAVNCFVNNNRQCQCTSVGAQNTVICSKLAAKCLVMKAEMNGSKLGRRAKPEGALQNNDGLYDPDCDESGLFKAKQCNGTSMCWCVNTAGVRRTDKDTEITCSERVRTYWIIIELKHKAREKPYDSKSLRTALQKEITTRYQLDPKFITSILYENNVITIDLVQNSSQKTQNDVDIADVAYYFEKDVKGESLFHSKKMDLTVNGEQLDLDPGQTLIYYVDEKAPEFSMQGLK

[4] = target: human CD3 antigen (SB, Cat: CT038-H2508H) (human, UniProt P07766 23-126; P04234 22-105); assay: as above
[5] = target: T2, human EpCAM antigen (SB, Cat: …); assay: SPR (Biacore T200), antigen amine-coupled on CM5, antibody as analyte, 1:1 fit; D14 sample after 14 days at 40 C

B1: M701 (bispecific antibody, human IgG1, kappa)
light: ELVMTQSPSSLTVTAGEKVTMSCKSSQSLLNSGNQKNYLTWYQQKPGQPPKLLIYWASTRESGVPDRFTGSGSGTDFTLTISSVQAEDLAVYYCQNDYSYPLTFGAGTKLEIKRTVAAPSVFIFPPSDEQLKSGTASVVCLLNNFYPREAKVQWKVDNALQSGNSQESVTEQDSKDSTYSLSSTLTLSKADYEKHKVYACEVTHQGLSSPVTKSFNRGEC
heavy: EVQLLEQSGAELVRPGTSVKISCKASGYAFTNYWLGWVKQRPGHGLEWIGDIFPGSGNIHYNEKFKGKATLTADKSSSTAYMQLSSLTFEDSAVYFCARLRNWDEPMDYWGQGTTVTVSSASTKGPSVFPLAPSSKSTSGGTAALGCLVKDYFPEPVTVSWNSGALTSGVHTFPAVLQSSGLYSLSSVVTVPSSSLGTQTYICNVNHKPSNTKVDKKVEPKSCDKTHTCPPCPAPELLGGPSVFLFPPKPKDTLMISRTPEVTCVVVDVSHEDPEVKFNWYVDGVEVHNAKTKPREEQYNSTYRVVSVLTVLHQDWLNGKEYKCKVSNKALPAPIEKTISKAKGQPREPQVYTLPPSRDELTKNQVSLWCLVKGFYPSDIAVEWESNGQPENNYDTTPPVLDSDGSFFLYSDLTVDKSRWQQGNVFSCSVMHEALHNHYTQKSLSLSPGK
chain: not shown
notes: also called bispecific antibody M701
[1]
  EC50: 0.0105 µM
[2]
  killing EC50 (PBMC effector cells, HCT116 target cells): 0.0692 mg/L

B2: M701C (bispecific antibody, human IgG1, kappa)
light: B1 light
heavy: B1 heavy
chain: EVQLVESGGGLVQPGGSLRLSCKASGYTFTRYTMHWVRQAPGKGLEWIGYINPSRGYTNYNQKVKDRFTISRDNSKNTAFLQMDSLRPEDTGVYFCARYYDDHYCLDYWGQGTPVTVSSGGGGSGGGGSGGGGSDIQMTQSPSSLSASVGDRVTITCSASSSVSYMNWYQQTPGKAPKRWIYDTSKLASGVPSRFSGSGSGTDYTFTISSLQPEDIATYYCQQWSSNPFTFGQGTKVEIKRGAAAEPKSCDKTHTCPPCPAPELLGGPSVFLFPPKPKDTLMISRTPEVTCVVVDVSHEDPEVKFNWYVDGVEVHNAKTKPREEQYNSTYRVVSVLTVLHQDWLNGKEYKCKVSNKALPAPIEKTISKAKGQPREPQVYTLPPSRDELTKNQVSLTCRVKGFYPSDIAVEWESNGQPENNYKTTPPVLKSDGSFFLASKLTVDKSRWQQGNVFSCSVMHEALHNHYTQKSLSLSPGK
notes: YBODY format; also called bispecific antibody M701C
[3]
  Kd: 0.0186 µM
[4]
  Kd: 0.0372 µM

B3: M701D (bispecific antibody, human IgG1, kappa)
light: B1 light
heavy: B1 heavy
chain: EVQLLESGGGLVQPGGSLRLSCAASGFTFSSFPMAWVRQAPGKGLEWVSTISTSGGRTYYRDSVKGRFTISRDNSKNTLYLQMNSLRAEDTAVYYCAKFRQYSGGFDYWGQGTLVTVSSGGGGSGGGGSGGGGSDIQLTQPNSVSTSLGSTVKLSCTLSSGNIENNYVHWYQLYEGRSPTTMIYDDDKRPDGVPDRFSGSIDRSSNSAFLTIHNVAIEDEAIYFCHSYVSSFNVFGGGTKLTVLRQPGAAAEPKSCDKTHTCPPCPAPELLGGPSVFLFPPKPKDTLMISRTPEVTCVVVDVSHEDPEVKFNWYVDGVEVHNAKTKPREEQYNSTYRVVSVLTVLHQDWLNGKEYKCKVSNKALPAPIEKTISKAKGQPREPQVYTLPPSRDELTKNQVSLTCRVKGFYPSDIAVEWESNGQPENNYKTTPPVLKSDGSFFLASKLTVDKSRWQQGNVFSCSVMHEALHNHYTQKSLSLSPGK
notes: YBODY format; also called bispecific antibody M701D
[3]
  Kd: 0.0144 µM

B4: M701E (bispecific antibody)
light: B1 light
heavy: B1 heavy
chain: not shown
notes: YBODY format; also called bispecific antibody M701E
[3]
  Kd: 0.0231 µM

B5: M701F (bispecific antibody, human IgG1, kappa)
light: B1 light
heavy: B1 heavy
chain: QVQLVQSGAEVKKPGASVKVSCKASGYTFISYTMHWVRQAPGQGLEWMGYINPRSGYTHYNQKLKDKATLTADKSASTAYMELSSLRSEDTAVYYCARSAYYDYDGFAYWGQGTLVTVSSGGGGSGGGGSGGGGSDIQMTQSPSSLSASVGDRVTITCSASSSVSYMNWYQQKPGKAPKRLIYDTSKLASGVPSRFSGSGSGTDFTLTISSLQPEDFATYYCQQWSSNPPTFGGGTKVEIKRGAAAEPKSCDKTHTCPPCPAPELLGGPSVFLFPPKPKDTLMISRTPEVTCVVVDVSHEDPEVKFNWYVDGVEVHNAKTKPREEQYNSTYRVVSVLTVLHQDWLNGKEYKCKVSNKALPAPIEKTISKAKGQPREPQVYTLPPSRDELTKNQVSLTCRVKGFYPSDIAVEWESNGQPENNYKTTPPVLKSDGSFFLASKLTVDKSRWQQGNVFSCSVMHEALHNHYTQKSLSLSPGK
notes: YBODY format; also called bispecific antibody M701F
[3]
  Kd: 0.0179 µM
[4]
  Kd: 0.0613 µM

B6: M701G (bispecific antibody, human IgG1, kappa)
light: B1 light
heavy: B1 heavy
chain: EVQLVESGGGLVQPGGSLRLSCAASGYSFTGYTMNWVRQAPGKGLEWVALINPYKGVSTYNQKFKDRFTISVDKSKNTAYLQMNSLRAEDTAVYYCARSGYYGDSDWYFDVWGQGTLVTVSSGGGGSGGGGSGGGGSDIQMTQSPSSLSASVGDRVTITCRASQDIRNYLNWYQQKPGKAPKLLIYYTSRLESGVPSRFSGSGSGTDYTLTISSLQPEDFATYYCQQGNTLPWTFGQGTKVEIKGAAAEPKSCDKTHTCPPCPAPELLGGPSVFLFPPKPKDTLMISRTPEVTCVVVDVSHEDPEVKFNWYVDGVEVHNAKTKPREEQYNSTYRVVSVLTVLHQDWLNGKEYKCKVSNKALPAPIEKTISKAKGQPREPQVYTLPPSRDELTKNQVSLTCRVKGFYPSDIAVEWESNGQPENNYKTTPPVLKSDGSFFLASKLTVDKSRWQQGNVFSCSVMHEALHNHYTQKSLSLSPGK
notes: YBODY format; also called bispecific antibody M701G
[3]
  Kd: 0.0197 µM
[4]
  Kd: 0.0188 µM

B7: M701J (bispecific antibody, human IgG1, kappa)
light: B1 light
heavy: EVQLLEQSGAELVRPGTSVKISCKASGYAFTNYWLGWVKQRPGHGLEWIGDIFPGSGNIHYNEKFKGKATLTADKSSSTAYMQLSSLTFEDSAVYFCARLRNWDEPMDYWGQGTTVTVSSASTKGPSVFPLAPSSKSTSGGTAALGCLVKDYFPEPVTVSWNSGALTSGVHTFPAVLQSSGLYSLSSVVTVPSSSLGTQTYICNVNHKPSNTKVDKKVEPKSCDKTHTCPPCPAPPVAGPSVFLFPPKPKDTLMISRTPEVTCVVVDVSHEAPEVQFNWYVDGVEVHNAKTKPREEQFNSTFRVVSVLTVVHQDWLNGKEYKCKVSNKGLPAPIEKTISKTKGQPREPQVYTLPPCRDELTKNQVSLWCLVKGFYPSDIAVEWESNGQPENNYKTTPPVLDSDGSFFLYSKLTVDKSRWQQGNVFSCSVMHEALHNHYTQKSLSLSPGK
chain: not shown
notes: YBODY format; also called bispecific antibody M701J
[1]
  EC50: 0.00378 µM
[3]
  Kd: 0.0182 µM
[5]
  Kd: 0.0187 µM

B8: M700 monoclonal antibody (antibody, human IgG1, kappa, V domains shown)
VH: VQLLEQSGAELVRPGTSVKISCKASGYAFTNYWLGWVKQRPGHGLEWIGDIFPGSGNIHYNEKFKGKATLTADKSSSTAYMQLSSLTFEDSAVYFCARLRNWDEPMDYWGQGTTVTVSS
VL: ELVMTQSPSSLTVTAGEKVTMSCKSSQSLLNSGNQKNYLTWYQQKPGQPPKLLIYWASTRESGVPDRFTGSGSGTDFTLTISSVQAEDLAVYYCQNDYSYPLTFGAGTKLEIKR
notes: also called anti-EpCAM monoclonal antibody control
[1]
  EC50: 0.00178 µM
